Assay results reported in US20030186329A1, “Use of substrate subtraction libraries to distinguish enzyme specificities” (The Scripps Research Institute, priority 1998, published 2003).

Columns and labels:
[1] = target: urokinase-type plasminogen activator (u-PA) (human) (UniProt P00749); assay: inhibition kinetics, residual enzymatic activity
[2] = target: tissue plasminogen activator (t-PA) (human) (UniProt P00750); assay: inhibition kinetics, residual enzymatic activity
[3] = target: urokinase-type plasminogen activator (u-PA) (human) (UniProt P00749); assay: ratio of the rate constants for inhibition of u-PA, wild type against variant
[4] = target: tissue plasminogen activator (t-PA) (human) (UniProt P00750); assay: ratio of the rate constants for inhibition of t-PA and u-PA
[5] = target: urokinase-type plasminogen activator (u-PA) (human) (UniProt P00749); assay: inhibition kinetics, residual enzymatic activity, indirect chromogenic assay
[6] = target: urokinase-type plasminogen activator (u-PA) (human) (UniProt P00749); assay: ratio of the rate constants for inhibition of u-PA and t-PA

tissue plasminogen activator (t-PA) (human), sequence (P00750 36-562 limits assumed): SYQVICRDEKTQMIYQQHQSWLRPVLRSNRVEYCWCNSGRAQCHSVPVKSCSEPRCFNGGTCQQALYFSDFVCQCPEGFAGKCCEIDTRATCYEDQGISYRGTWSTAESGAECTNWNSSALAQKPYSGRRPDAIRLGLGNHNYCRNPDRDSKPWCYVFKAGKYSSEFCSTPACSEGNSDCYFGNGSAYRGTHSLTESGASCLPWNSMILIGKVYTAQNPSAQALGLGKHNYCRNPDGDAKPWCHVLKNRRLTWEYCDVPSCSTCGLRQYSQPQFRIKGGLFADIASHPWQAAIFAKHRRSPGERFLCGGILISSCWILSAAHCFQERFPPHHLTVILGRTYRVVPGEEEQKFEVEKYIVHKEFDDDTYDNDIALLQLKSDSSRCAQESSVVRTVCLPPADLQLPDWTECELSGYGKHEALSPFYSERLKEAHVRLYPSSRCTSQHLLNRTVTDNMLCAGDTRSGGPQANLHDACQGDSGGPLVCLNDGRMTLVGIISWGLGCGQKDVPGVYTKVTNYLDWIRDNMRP

PAI-1/P3R (from UniProt P05121 24-402)
second order rate constant for inhibition [1]: 100000 M⁻¹ s⁻¹
second order rate constant for inhibition [2]: 1.4e+06 M⁻¹ s⁻¹
fold reduction of activity against wild type PAI-1 [3]: 190 fold
t-PA/u-PA Selectivity [4]: 14

PAI-1/P4Q, P3R (from UniProt P05121 24-402)
second order rate constant for inhibition [1]: 29000 M⁻¹ s⁻¹
second order rate constant for inhibition [2]: 1.4e+06 M⁻¹ s⁻¹
t-PA/u-PA Selectivity [4]: 48

wild type plasminogen activator inhibitor type 1 (PAI-1) (from UniProt P05121 24-402) (other; other documents disagree on this pair)
second order rate constant for inhibition [5]: 1.9e+07 M⁻¹ s⁻¹
fold specificity toward u-PA over t-PA [6]: 11.9 fold
